Test results reported in publication PMC10397247.
Like-named read-outs stand apart in the source and are kept apart here.

Legend:
[1] = biological target: T1, 4H3915-AA; assay: two-hybrid library CCmax;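 also: natural log of median RNA to DNA barcode read ratio; higher means stronger binding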
T1 chain: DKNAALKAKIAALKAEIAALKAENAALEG

[2] = biological target: T2, 4H3974-AA; assay: two-hybrid library CCmax; conditions: mean of both orientations;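 also: natural log of median RNA to DNA barcode read ratio; higher means stronger binding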
T2 chain: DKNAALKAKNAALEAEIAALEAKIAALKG

[3] = biological target: T3, 4H432-AA; assay: two-hybrid library CCmax; conditions: mean of both orientations;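 also: natural log of median RNA to DNA barcode read ratio; higher means stronger binding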
T3 chain: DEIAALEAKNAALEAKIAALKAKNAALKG

[4] = biological target: T4, 4H446-AA; assay: two-hybrid library CCmax;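 also: natural log of median RNA to DNA barcode read ratio; higher means stronger binding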
T4 chain: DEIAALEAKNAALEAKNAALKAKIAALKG

[5] = biological target: T5, 4H63-AA; assay: two-hybrid library CCmax; conditions: mean of both orientations;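 also: natural log of median RNA to DNA barcode read ratio; higher means stronger binding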
T5 chain: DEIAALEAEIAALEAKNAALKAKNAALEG

[6] = biological target: T6, 4H72-bA; assay: two-hybrid library CCNG1;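 also: natural log of median RNA to DNA barcode read ratio; higher means stronger binding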
T6 chain: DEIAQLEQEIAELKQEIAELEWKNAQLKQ

[7] = biological target: T7, 4H754-bA; assay: two-hybrid library CCNG1
T7 chain: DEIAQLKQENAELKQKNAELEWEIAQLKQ

[8] = biological target: T8, 4H797-bA; assay: two-hybrid library CCNG1
T8 chain: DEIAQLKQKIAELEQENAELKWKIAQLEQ

[9] = biological target: T9, 4H883-bA; assay: two-hybrid library CCNG1
T9 chain: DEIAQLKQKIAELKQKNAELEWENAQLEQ

[10] = biological target: T10, 4H908-bA; assay: two-hybrid library CCNG1
T10 chain: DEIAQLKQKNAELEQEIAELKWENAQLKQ

[11] = biological target: T11, 4H918-bA; assay: two-hybrid library CCNG1
T11 chain: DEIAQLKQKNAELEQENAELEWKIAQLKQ

[12] = biological target: T12, 4H953-bA; assay: two-hybrid library CCNG1
T12 chain: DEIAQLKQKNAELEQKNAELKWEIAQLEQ

[13] = biological target: T13, 4H967-bA; assay: two-hybrid library CCNG1
T13 chain: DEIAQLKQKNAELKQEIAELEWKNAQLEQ

[14] = biological target: T14, 4H464-AA; assay: two-hybrid library CCmax
T14 chain: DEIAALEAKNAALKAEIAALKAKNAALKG

[15] = biological target: T15, 4H483-AA; assay: two-hybrid library CCmax; conditions: mean of both orientations
T15 chain: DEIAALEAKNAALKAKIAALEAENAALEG

[16] = biological target: T16, APC9182-AA; assay: two-hybrid library CCmax
T16 chain: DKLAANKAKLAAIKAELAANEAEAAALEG

[17] = biological target: T17, APC9291-AA; assay: two-hybrid library CCmax; conditions: mean of both orientations
T17 chain: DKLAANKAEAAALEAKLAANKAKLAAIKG

[18] = biological target: T18, APC9806-AA; assay: two-hybrid library CCmax; conditions: mean of both orientations
T18 chain: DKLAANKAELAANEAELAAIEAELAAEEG

[19] = biological target: T19, 4H3130-AA; assay: two-hybrid library CCmax
T19 chain: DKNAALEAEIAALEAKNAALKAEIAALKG

[20] = biological target: T20, 4H3165-AA; assay: two-hybrid library CCmax; conditions: mean of both orientations
T20 chain: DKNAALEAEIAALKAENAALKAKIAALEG

[21] = biological target: T21, 4H3381-AA; assay: two-hybrid library CCmax; conditions: mean of both orientations
T21 chain: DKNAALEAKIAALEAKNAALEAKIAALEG

[22] = biological target: T22, 4H3395-AA; assay: two-hybrid library CCmax; conditions: mean of both orientations
T22 chain: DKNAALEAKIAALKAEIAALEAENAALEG

[23] = biological target: T23, 4H3410-AA; assay: two-hybrid library CCmax; conditions: mean of both orientations
T23 chain: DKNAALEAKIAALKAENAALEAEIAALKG

[24] = biological target: T24, 4H3590-AA; assay: two-hybrid library CCmax; conditions: mean of both orientations
T24 chain: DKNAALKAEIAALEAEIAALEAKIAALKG

[25] = biological target: T25, 4H3697-AA; assay: two-hybrid library CCmax; conditions: mean of both orientations
T25 chain: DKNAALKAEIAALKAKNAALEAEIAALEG

[26] = biological target: T26, 4H3753-AA; assay: two-hybrid library CCmax; conditions: mean of both orientations
T26 chain: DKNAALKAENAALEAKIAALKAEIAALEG

[27] = biological target: T27, 4H3865-AA; assay: two-hybrid library CCmax; conditions: mean of both orientations
T27 chain: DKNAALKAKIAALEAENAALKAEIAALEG

[28] = biological target: T28, 4H458-AA; assay: two-hybrid library CCmax; conditions: mean of both orientations
T28 chain: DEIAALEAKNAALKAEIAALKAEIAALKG

[29] = biological target: T29, 4H485-AA; assay: two-hybrid library CCmax; conditions: mean of both orientations
T29 chain: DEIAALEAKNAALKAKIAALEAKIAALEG

[30] = biological target: T30, 4H536-AA; assay: two-hybrid library CCmax; conditions: mean of both orientations
T30 chain: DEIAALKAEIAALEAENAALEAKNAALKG

[31] = biological target: T31, 4H570-AA; assay: two-hybrid library CCmax; conditions: mean of both orientations
T31 chain: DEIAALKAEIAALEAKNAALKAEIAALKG

[32] = biological target: T32, 4H629-AA; assay: two-hybrid library CCmax; conditions: mean of both orientations
T32 chain: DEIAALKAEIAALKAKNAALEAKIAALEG

[33] = biological target: T33, 4H710-AA; assay: two-hybrid library CCmax; conditions: mean of both orientations
T33 chain: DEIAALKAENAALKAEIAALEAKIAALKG

[34] = biological target: T34, 4H745-AA; assay: two-hybrid library CCmax; conditions: mean of both orientations
T34 chain: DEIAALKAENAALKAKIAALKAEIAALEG

[35] = biological target: T35, 4H797-AA; assay: two-hybrid library CCmax; conditions: mean of both orientations
T35 chain: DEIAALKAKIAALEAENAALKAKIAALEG

[36] = biological target: T36, 4H850-AA; assay: two-hybrid library CCmax; conditions: mean of both orientations
T36 chain: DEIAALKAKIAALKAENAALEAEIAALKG

[37] = biological target: T37, 4H891-AA; assay: two-hybrid library CCmax; conditions: mean of both orientations
T37 chain: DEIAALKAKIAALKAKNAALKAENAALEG

[38] = biological target: T38, 4H909-AA; assay: two-hybrid library CCmax; conditions: mean of both orientations
T38 chain: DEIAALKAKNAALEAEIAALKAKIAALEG

[39] = biological target: T39, 4H930-AA; assay: two-hybrid library CCmax; conditions: mean of both orientations
T39 chain: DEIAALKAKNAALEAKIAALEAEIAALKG

[40] = biological target: T40, 4H94-AA; assay: two-hybrid library CCmax; conditions: mean of both orientations
T40 chain: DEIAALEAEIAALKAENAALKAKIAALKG

B1: 4H3915-AA (peptide)
chain: DKNAALKAKIAALKAEIAALKAENAALEG
interaction score [1]: -0.838
interaction score [2]: -0.146
interaction score [3]: -1.16
interaction score ([4]; mean of both orientations): -1.7
interaction score [5]: 0.485

B2: 4H72-bA (peptide)
chain: DEIAQLEQEIAELKQEIAELEWKNAQLKQ
interaction score [6]: 0.83
interaction score [7]: -0.173
interaction score [8]: -0.956
interaction score [9]: 1.05
interaction score [10]: -0.464
interaction score [11]: -0.479
interaction score [12]: -0.161
interaction score [13]: -0.0446

B3: 4H464-AA (peptide)
chain: DEIAALEAKNAALKAEIAALKAKNAALKG
interaction score [14]: -1.22
interaction score [15]: -0.618
interaction score [5]: -1.22

B4: 4H446-AA (peptide)
chain: DEIAALEAKNAALEAKNAALKAKIAALKG
interaction score [4]: -1.68
interaction score ([14]; mean of both orientations): -1.77
interaction score [15]: -2.13
interaction score [5]: -1.67

B5: APC9182-AA (peptide)
chain: DKLAANKAKLAAIKAELAANEAEAAALEG
interaction score [16]: -1.77
interaction score [17]: -1.98
interaction score [18]: -1.59

B6: 4H3130-AA (peptide)
chain: DKNAALEAEIAALEAKNAALKAEIAALKG
interaction score [19]: 0.118
interaction score [20]: -1.3
interaction score [21]: -1.07
interaction score [22]: -1.29
interaction score [23]: 2.07
interaction score [24]: 0.624
interaction score [25]: -0.0288
interaction score [26]: -0.789
interaction score [27]: 1.11
interaction score [28]: -3.23
interaction score [29]: -1.58
interaction score [30]: -0.902
interaction score [31]: -0.712
interaction score [32]: -1.31
interaction score [33]: -1.31
interaction score [34]: -1.54
interaction score [35]: -1.21
interaction score [36]: 2.04
interaction score [37]: -1.99
interaction score [38]: -1.06
interaction score [39]: -1.73
interaction score [40]: -0.202
